Positions count from the first letter of the chain named. Values belong to the binder of their own block, whether it stands above or below them.
Experiments:
recombinant LILRB1 ECD [1] = target: T1, recombinant LILRB1 ECD (human, UniProt Q8NHL6 24-461); test: BLI, IgG on AHC sensor, ECD in solution
T1 construct: also called biotinylated LILRB1 ECD
Description: (§1) Briefly, IgGs were captured on anti-human capture (AHC) biosensors (Sartorius). […] Subsequently, the sensors were dipped into 1× Kinetics Buffer to measure the dissociation over 420 s. All sensorgrams were double referenced against 1× Kinetics Buffer and unloaded […] sensors to subtract sensor drifts and potential reference binding of the analytes. The affinities were determined by applying a 1:1 binding model.

recombinant LILRA1 ECD = target: T2, recombinant LILRA1 ECD (human, UniProt O75019 17-461); test: BLI, IgG on AHC sensor, ECD in solution
T2 construct: whole canonical entry named; also called LILA1
T2 sequence (O75019 17-461 limits assumed): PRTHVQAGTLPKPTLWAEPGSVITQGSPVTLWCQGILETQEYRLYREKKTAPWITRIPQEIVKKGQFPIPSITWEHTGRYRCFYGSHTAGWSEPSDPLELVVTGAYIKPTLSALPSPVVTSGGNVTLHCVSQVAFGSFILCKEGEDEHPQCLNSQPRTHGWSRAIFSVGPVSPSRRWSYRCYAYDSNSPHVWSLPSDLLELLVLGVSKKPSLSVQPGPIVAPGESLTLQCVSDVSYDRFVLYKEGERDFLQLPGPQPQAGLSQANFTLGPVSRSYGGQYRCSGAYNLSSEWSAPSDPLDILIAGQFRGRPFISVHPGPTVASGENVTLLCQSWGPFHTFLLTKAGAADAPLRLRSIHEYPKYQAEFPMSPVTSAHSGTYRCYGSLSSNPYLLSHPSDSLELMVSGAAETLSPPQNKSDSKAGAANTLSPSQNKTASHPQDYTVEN
Description: as §1

recombinant LILRA3 = target: T3, recombinant LILRA3 (human, UniProt Q8N6C8 24-439); test: BLI, IgG on AHC sensor, ECD in solution
T3 construct: whole entry named; also called LILRA3 ECD; LILA3
T3 sequence (Q8N6C8 24-439 limits assumed): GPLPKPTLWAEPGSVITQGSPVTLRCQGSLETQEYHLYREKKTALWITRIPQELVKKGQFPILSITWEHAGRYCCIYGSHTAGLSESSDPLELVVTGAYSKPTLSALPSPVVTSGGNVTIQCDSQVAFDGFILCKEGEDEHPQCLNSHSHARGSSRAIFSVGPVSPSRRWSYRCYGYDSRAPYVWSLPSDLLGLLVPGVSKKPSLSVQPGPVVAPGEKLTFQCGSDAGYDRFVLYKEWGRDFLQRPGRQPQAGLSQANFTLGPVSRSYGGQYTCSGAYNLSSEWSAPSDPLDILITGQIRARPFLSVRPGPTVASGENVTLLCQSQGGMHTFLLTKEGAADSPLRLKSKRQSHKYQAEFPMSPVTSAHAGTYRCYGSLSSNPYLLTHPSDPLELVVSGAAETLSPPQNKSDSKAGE
Description: as §1

recombinant LILRB2 ECD [2] = target: T4, recombinant LILRB2 ECD (human, UniProt Q8N423 22-460); test: BLI, IgG on AHC sensor, ECD in solution
T4 construct: also called biotinylated LILRB2 ECD
T4 sequence (Q8N423 22-460 limits assumed): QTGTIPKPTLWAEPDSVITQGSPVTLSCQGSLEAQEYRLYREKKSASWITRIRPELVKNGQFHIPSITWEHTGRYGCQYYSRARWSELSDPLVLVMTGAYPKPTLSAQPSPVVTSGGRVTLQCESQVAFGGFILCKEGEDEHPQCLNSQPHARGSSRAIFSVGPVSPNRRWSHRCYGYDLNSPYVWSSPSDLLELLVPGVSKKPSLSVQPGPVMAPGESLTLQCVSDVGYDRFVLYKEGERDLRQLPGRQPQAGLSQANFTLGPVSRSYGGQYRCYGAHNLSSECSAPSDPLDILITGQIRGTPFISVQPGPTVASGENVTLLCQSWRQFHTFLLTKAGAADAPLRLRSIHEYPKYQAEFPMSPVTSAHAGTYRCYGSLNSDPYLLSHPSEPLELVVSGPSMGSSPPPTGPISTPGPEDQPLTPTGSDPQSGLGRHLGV
Description: as §1

recombinant LILRB2 ECD [3] = target: T4, recombinant LILRB2 ECD; test: ELISA, LILRB2 ECD binding to HLA-G-Fc
Description: (§2) HLA-G inhibition was tested by ELISA. 384-well Maxisorp plates were coated with 2 ug/mL B2M-HLA-G fused to a mouse IgG2a-Fc and the plates were blocked with 2% (w/v) BSA in PBST. […] 15 ul of the antibody dilution series (300 nM to 0.3 nM) were mixed with 30 μL of the pre-mixed LILRB/Avidin-HRP solution (final antibody concentration 100 nM to 0.1 nM) and incubated for 1 h at room temperature. After three wash cycles with PBST, 20 μL of the antibody/LILRB/Avidin-HRP solution was transferred to the plate with immobilized HLA-G and incubated for 15 min at room temperature. After three wash cycles with PBST, residual LILRB binding to HLA-G was detected by developing the ELISA with TMB substrate.

recombinant LILRB1 ECD [4] = target: T1, recombinant LILRB1 ECD; test: ELISA, LILRB1 ECD binding to HLA-G-Fc
Description: as §2

T1 sequence (Q8NHL6 24-461 limits assumed): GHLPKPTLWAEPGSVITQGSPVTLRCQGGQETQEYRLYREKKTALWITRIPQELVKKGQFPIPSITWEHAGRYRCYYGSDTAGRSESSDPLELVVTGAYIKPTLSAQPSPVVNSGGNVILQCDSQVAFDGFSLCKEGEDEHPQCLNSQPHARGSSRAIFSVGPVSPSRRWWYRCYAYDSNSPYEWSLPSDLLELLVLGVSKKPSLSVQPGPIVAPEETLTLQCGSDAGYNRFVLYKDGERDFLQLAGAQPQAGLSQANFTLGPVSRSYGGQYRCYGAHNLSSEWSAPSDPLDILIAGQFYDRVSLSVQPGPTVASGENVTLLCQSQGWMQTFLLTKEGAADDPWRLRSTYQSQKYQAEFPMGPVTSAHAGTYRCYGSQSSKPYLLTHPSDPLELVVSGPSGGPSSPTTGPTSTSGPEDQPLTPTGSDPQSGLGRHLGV

B2: A-006 (antibody, V domains shown)
VH: QVQLVQSGAEVKKPGSSVKVSCKASGGTFSQYAFSWVRQAPGQGLEWMGSIIPGFTTSNYAHKFQGRVTITADESTSTAYMELSSLRSEDTAVYYCAKDLGTYSSGWPYYYGMDVWGQGTTVTVSS
VL: SYELTQPPSVSVSPGQTASITCSGDKLGDKYASWYQQKPGQSPVLVIYQDSKRPSGIPERFSGSNSGNTATLTISGTQAEDEADYYCQSTTHTSFVFGGGTKLTVL
notes: tested as IgG
- Kd (recombinant LILRB1 ECD [1]): 0.5 nM
- Kd (recombinant LILRA1 ECD): 190 nM
- Kd (recombinant LILRA3): 182 nM
- Kd (recombinant LILRB2 ECD [2]): 2.3 nM
- IC50 (recombinant LILRB2 ECD [3]): 4.8 nM
- IC50 (recombinant LILRB1 ECD [4]): 6.1 nM

B4: A-012 (antibody, V domains shown)
VH: B2 VH with F29I, Q31E, S35L, S50G, G54K, T56H, S58A, H62Q
VL: B2 VL
notes: tested as IgG
- Kd (recombinant LILRB1 ECD [1]): 12.8 nM
- Kd (recombinant LILRA1 ECD): 469 nM
- Kd (recombinant LILRA3): 166 nM
- Kd (recombinant LILRB2 ECD [2]): 6.8 nM
- IC50 (recombinant LILRB2 ECD [3]): 3.8 nM
- IC50 (recombinant LILRB1 ECD [4]): 3.3 nM

B7: A-007 (antibody, V domains shown)
VH: B2 VH with T28S, S30R, Q31E, G54T, T56H, H62G
VL: B2 VL
notes: tested as IgG
- Kd (recombinant LILRB1 ECD [1]): 11.7 nM
- Kd (recombinant LILRA1 ECD): 322 nM
- Kd (recombinant LILRA3): 255 nM
- Kd (recombinant LILRB2 ECD [2]): 1.2 nM
- IC50 (recombinant LILRB2 ECD [3]): 3.6 nM
- IC50 (recombinant LILRB1 ECD [4]): 3.3 nM

B8: A-011 (antibody, V domains shown)
VH: B2 VH with T28S, Q31H, Y32S, G54A, T56Y, S58A, H62Q
VL: B2 VL
notes: tested as IgG
- Kd (recombinant LILRB1 ECD [1]): 9.3 nM
- Kd (recombinant LILRA1 ECD): 470 nM
- Kd (recombinant LILRA3): 137 nM
- Kd (recombinant LILRB2 ECD [2]): 4.4 nM
- IC50 (recombinant LILRB2 ECD [3]): 5.5 nM
- IC50 (recombinant LILRB1 ECD [4]): 6.1 nM

B9: A-004 (antibody, V domains shown)
VH: B2 VH with S30R, Q31T, Y32K, F34I, S35A, S50G, G54I, T56S, S58A, H62P
VL: B2 VL
notes: tested as IgG
- Kd (recombinant LILRB1 ECD [1]): 12.8 nM
- Kd (recombinant LILRA1 ECD): 569 nM
- Kd (recombinant LILRA3): 232 nM
- Kd (recombinant LILRB2 ECD [2]): 7.1 nM
- IC50 (recombinant LILRB2 ECD [3]): 4.5 nM
- IC50 (recombinant LILRB1 ECD [4]): 4.4 nM

B10: A-009 (antibody, V domains shown)
VH: B2 VH with Q31V, Y32T, F34I, S35L, S50G, G54S, T57S, S58A, H62S
VL: B2 VL
notes: tested as IgG
- Kd (recombinant LILRB1 ECD [1]): 3.7 nM
- Kd (recombinant LILRA1 ECD): 194 nM
- Kd (recombinant LILRA3): 92.8 nM
- Kd (recombinant LILRB2 ECD [2]): 3.4 nM
- IC50 (recombinant LILRB2 ECD [3]): 5.5 nM
- IC50 (recombinant LILRB1 ECD [4]): 5.5 nM

The next lines start with the values.

- Kd (recombinant LILRB1 ECD [1]): 6.3 nM
- Kd (recombinant LILRA1 ECD): 1080 nM
- Kd (recombinant LILRA3): 622 nM
- Kd (recombinant LILRB2 ECD [2]): 4.2 nM
- IC50 (recombinant LILRB2 ECD [3]): 4.6 nM
- IC50 (recombinant LILRB1 ECD [4]): 4.5 nM
B1: A-013 (antibody, V domains shown)
VH: B2 VH with S30R, Y32E, G54I, T56Y, T57S, H62Q
VL: B2 VL
notes: tested as IgG

- Kd (recombinant LILRB1 ECD [1]): 6.2 nM
- Kd (recombinant LILRA1 ECD): 808 nM
- Kd (recombinant LILRA3): 212 nM
- Kd (recombinant LILRB2 ECD [2]): 2.7 nM
- IC50 (recombinant LILRB2 ECD [3]): 5.1 nM
- IC50 (recombinant LILRB1 ECD [4]): 5 nM
B3: A-018 (antibody, V domains shown)
VH: B2 VH with Q31T, Y32S, F34I, S50G, G54I, T56Y, S58A, H62Q
VL: B2 VL
notes: tested as IgG

- Kd (recombinant LILRB1 ECD [1]): 6.5 nM
- Kd (recombinant LILRA1 ECD): 402 nM
- Kd (recombinant LILRA3): 116 nM
- Kd (recombinant LILRB2 ECD [2]): 1.4 nM
- IC50 (recombinant LILRB2 ECD [3]): 5.1 nM
- IC50 (recombinant LILRB1 ECD [4]): 4.4 nM
B5: A-016 (antibody, V domains shown)
VH: B2 VH with Q31S, S35N, G54I, T56K, S58A, H62Q
VL: B2 VL
notes: tested as IgG

- Kd (recombinant LILRB1 ECD [1]): 20.7 nM
- Kd (recombinant LILRA1 ECD): 1030 nM
- Kd (recombinant LILRA3): 144 nM
- Kd (recombinant LILRB2 ECD [2]): 3.9 nM
- IC50 (recombinant LILRB2 ECD [3]): 4.9 nM
- IC50 (recombinant LILRB1 ECD [4]): 4 nM
B6: A-019 (antibody, V domains shown)
VH: QVQLVQSGAEVKKPGSSVKVSCKASGYTFTTSAMNWVRQAPGQGLEWMGGIIPYFSTANYAPKFQGRVTITADESTSTAYMELSSLRSEDTAVYYCAKDLGTYSSGWPYYYGMDVWGQGTTVTVSS
VL: B2 VL
notes: tested as IgG

- Kd (recombinant LILRB1 ECD [1]): 21.2 nM
- Kd (recombinant LILRA1 ECD): 316 nM
- Kd (recombinant LILRA3): 392 nM
- Kd (recombinant LILRB2 ECD [2]): 2.9 nM
- IC50 (recombinant LILRB2 ECD [3]): 3.8 nM
- IC50 (recombinant LILRB1 ECD [4]): 3.7 nM
B11: A-020 (antibody, V domains shown)
VH: B2 VH with S30Q, Q31T, F34I, G54K, T56Y, T57Q, H62Y
VL: B2 VL
notes: tested as IgG

- Kd (recombinant LILRB1 ECD [1]): 4.4 nM
- Kd (recombinant LILRA1 ECD): 471 nM
- Kd (recombinant LILRA3): 58.8 nM
- Kd (recombinant LILRB2 ECD [2]): 2.3 nM
- IC50 (recombinant LILRB2 ECD [3]): 4.2 nM
- IC50 (recombinant LILRB1 ECD [4]): 3.8 nM
B12: A-014 (antibody, V domains shown)
VH: B2 VH with Q31S, F34I, S35N, S50G, G54I, T56H, H62Q
VL: B2 VL
notes: tested as IgG

Reference: patent US20260209345A1 (IOMX THERAPEUTICS, published 2026)
